{"source": "paper PMC7954794", "about": "“Protein context shapes the specificity of SH3 domain-mediated interactions in vivo” (Nature Communications, 2021)", "molecules": {"B1": {"name": "YBL071W-A_2 (protein, UniProt Q3E840 1-82, looked up)", "Diphthamide biosynthesis …": "MSTYDEIEIEDMTFEPENQMFTYPCPCGDRFQIYLDDMFEGEKVAVCPSCSLMIDVVFDKEDLAEYYEEAGIHPPEPIAAAA"}, "B2": {"name": "YCR030C_2 (protein, UniProt P25623 1-870, looked up)", "Suppressor of yeast profilin …": "MTEQRTKYADSILTTKSPYEATETIRIRLSQVKLLNKDFYLLFKELANLKRNYAQQLRKIIAENEDITKILNAQMIESNVLTPQEMSAFRFNSLGELRNVWDTVIEELKSDLKSSTEYYNTLDQQVVRELKESVENNTSWRESKDLHSKLSKNAASIEHYSKNNENSSHLEEARRQWDQQSPYLFELFETIDYNRLDTLKNCMLRFQTSFSDYLLNTTKECETVMTKFLAFEPQSEIDRFAKDASQYNFQLSSSSKEVVPNNASPASATGARPVSVSNGAANTEREKKSPQKDKRKSAFGNIGHRLASASSSLTHNDLMNNEFSDSTNNSSLKSKKSSHTLRSKVGSIFGRNKTKNKRQQQSSSNSHIQASITETPNNSSTRVSSTATSSIYQKQRRPTYSSSKSNNWTPGEASDTPPLPPHATPKNVDAPVTADTPPAQTFTPSEVPPSTPQQSSPPTAKEPDSSNLPKTVPISISQPPLQPQSKTKPLPVEPASPSISLPTATVDNQPSGQVDSRPLHIRAPALPPSRKQNFIHNRDSQLYDSLPNHGSGATPTSSSLSSIPQERPVSTLSSQITGELRELNPQATGSSTSLVGQSLFQHSSLDTSQFGLNASIAEVLNASFKDGMLQNSQLIGEIALNYLPNSVMNSPLPIGINLRINNGAKFEKVILNQAFIERVAPEEFKVNPSFIDSRTLGAIKYSIKEPIAPIVIHPVWRFESHQASVVLTVKMSPSLPDEISQIVIEDLVVFVNIDGANATSALSKPQGSFSKEKKRITWRFKEPVVLTRNGEGQRLIARFITDGLAHESAKGVITKFTISETDNVALPHSGAGSGITLTCQELDENNPFGGEWLDVNTKRTLTTGNYHGLA"}, "B3": {"name": "YDL225W_2 (protein, UniProt Q07657 2-551, looked up)", "Seventh homolog of septin 1": "STASTPPINLFRRKKEHKRGITYTMLLCGPAGTGKTAFANNLLETKIFPHKYQYGKSNASISSNPEVKVIAPTKVVSFNSKNGIPSYVSEFDPMRANLEPGITITSTSLELGGNKDQGKPEMNEDDTVFFNLIMTHGIGENLDDSLCSEEVMSYLEQQFDIVLAEETRIKRNPRFEDTRVHVALYFIEPTGHGLREVDVELMKSISKYTNVLPIITRADSFTKEELTQFRKNIMFDVERYNVPIYKFEVDPEDDDLESMEENQALASLQPFAIITSDTRDSEGRYVREYPWGIISIDDDKISDLKVLKNVLFGSHLQEFKDTTQNLLYENYRSEKLSSVANAEEIGPNSTKRQSNAPSLSNFASLISTGQFNSSQTLANNLRADTPRNQVSGNFKENEYEDNGEHDSAENEQEMSPVRQLGREIKQENENLIRSIKTESSPKFLNSPDLPERTKLRNISETVPYVLRHERILARQQKLEELEAQSAKELQKRIQELERKAHELKLREKLINQNKLNGSSSSINSLQQSTRSQIKKNDTYTDLASIASGRD"}, "B4": {"name": "YHR064C_2 (protein, UniProt P38788 1-538, looked up)", "Ribosome-associated complex …": "MSSPVIGITFGNTSSSIAYINPKNDVDVIANPDGERAIPSALSYVGEDEYHGGQALQQLIRNPKNTIINFRDFIGLPFDKCDVSKCANGAPAVEVDGKVGFVISRGEGKEEKLTVDEVVSRHLNRLKLAAEDYIGSAVKEAVLTVPTNFSEEQKTALKASAAKIGLQIVQFINEPSAALLAHAEQFPFEKDVNVVVADFGGIRSDAAVIAVRNGIFTILATAHDLSLGGDNLDTELVEYFASEFQKKYQANPRKNARSLAKLKANSSITKKTLSNATSATISIDSLADGFDYHASINRMRYELVANKVFAQFSSFVDSVIAKAELDPLDIDAVLLTGGVSFTPKLTTNLEYTLPESVEILGPQNKNASNNPNELAASGAALQARLISDYDADELAEALQPVIVNTPHLKKPIGLIGAKGEFHPVLLAETSFPVQKKLTLKQAKGDFLIGVYEGDHHIEEKTLEPIPKEENAEEDDESEWSDDEPEVVREKLYTLGTKLMELGIKNANGVEIIFNINKDGALRVTARDLKTGNAVKGEL"}}, "tested_on": "PPIs identified as affected by the SH3 domain deletions", "experiment": "Liquid DHFR-PCA low-throughput validation of PPIs affected by SH3 deletion (Fig. S1D-E)", "format": "cell-based, Saccharomyces cerevisiae", "details": "label = prey, liquid DHFR-PCA, prey _1 = lost, _2 = gained in screen", "procedure,_shortened": "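Yeast diploids from DHFR-PCA mating grown 48 h in synthetic complete MSG medium pH 6.0 with NAT and HPH, normalized to 1 OD and diluted to 0.1 OD in liquid PCA selection medium. Growth followed by OD every 15 min for 72 h at 30 °C.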"}
{"molecule": "B1", "values": [{"measurement": "Ratio (Deletedscore / WTscore)", "setting": "bait ABP1", "result": 1.188}]}
{"molecule": "B2", "values": [{"measurement": "Ratio (Deletedscore / WTscore)", "setting": "bait BZZ1-2", "result": 1.115}]}
{"molecule": "B3", "values": [{"measurement": "Ratio (Deletedscore / WTscore)", "setting": "bait BZZ1-2", "result": 1.566}, {"measurement": "Ratio (Deletedscore / WTscore)", "setting": "bait HOF1", "result": 1.663}]}
{"molecule": "B4", "values": [{"measurement": "Ratio (Deletedscore / WTscore)", "setting": "bait BZZ1-2", "result": 1.071}]}
